Laboratory results reported in patent publication US8138151B2, “Peptides” (Faron Ventures Oy, priority 2006, dated 2012).
“Also recorded” adds a separate entry of the source.

Key:
[1] = biological target: T1, purified recombinant VAP-1 (Homo sapiens, UniProt Q16853); experiment: ELISA binding of biotinylated synthetic peptides to immobilized VAP-1; conditions: wells coated with VAP-1, BSA as negative control; streptavidin-HRP chemiluminescence detection
T1 sequence (Q16853 1-763): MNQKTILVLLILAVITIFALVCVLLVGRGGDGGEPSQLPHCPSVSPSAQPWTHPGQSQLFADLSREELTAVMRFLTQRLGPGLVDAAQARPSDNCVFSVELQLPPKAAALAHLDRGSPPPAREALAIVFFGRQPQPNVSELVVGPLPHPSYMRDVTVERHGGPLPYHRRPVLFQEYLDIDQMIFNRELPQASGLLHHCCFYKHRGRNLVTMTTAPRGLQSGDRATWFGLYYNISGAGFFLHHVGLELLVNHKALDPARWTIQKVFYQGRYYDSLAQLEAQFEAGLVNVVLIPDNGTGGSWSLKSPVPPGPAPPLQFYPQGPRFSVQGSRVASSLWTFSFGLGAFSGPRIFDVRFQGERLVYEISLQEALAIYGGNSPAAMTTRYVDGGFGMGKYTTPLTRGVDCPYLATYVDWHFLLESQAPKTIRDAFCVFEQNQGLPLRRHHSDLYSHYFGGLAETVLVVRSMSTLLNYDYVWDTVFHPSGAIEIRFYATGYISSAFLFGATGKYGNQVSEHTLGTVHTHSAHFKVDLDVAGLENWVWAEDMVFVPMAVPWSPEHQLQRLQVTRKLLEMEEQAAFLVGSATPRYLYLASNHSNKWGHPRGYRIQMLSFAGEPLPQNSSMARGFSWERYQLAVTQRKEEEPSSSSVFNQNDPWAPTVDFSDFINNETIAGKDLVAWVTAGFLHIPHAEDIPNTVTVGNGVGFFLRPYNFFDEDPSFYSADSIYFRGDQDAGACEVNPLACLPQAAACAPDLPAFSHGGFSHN
Protocol: Binding of peptides to VAP-1. VAP-1 and BSA as a negative control were immobilized in wells of Nunc Maxisorp 96-well ELISA plate overnight at 4° C., blocked with PBS/3% BSA for 1 h at 37° C. and incubated with biotinylated peptides (10 micrograms/ml or 100 micrograms/ml) for 2 h at room temperature. The wells were washed with PBS/0.1% Tween, incubated with HRP conjugated streptavidin for 1 h at room temperature and after washing a BM chemiluminescence ELISA substrate was added. Luminescence was measured with a luminometer (Tecan Ultra, Tecan, Zürich, Switzerland).

[2] = biological target: T2, recombinant VAP-1 (Homo sapiens, UniProt Q16853); experiment: ELISA binding of Siglec-10-Ig-chimera to recombinant VAP-1; conditions: chimera immobilized via anti-human IgG; VAP-1 detected with biotinylated TK-8-18
T2 sequence (Q16853 1-763): T1 sequence (Q16853 1-763)
Protocol: Siglec 10-Fc chimera binding to VAP-1. Anti-human IgG (Fc specific) antibody was coated onto Nunc Maxisorp wells overnight at 4° C. After blocking with PBS/2% BSA, Siglec-10-Ig-chimera (1 microgram/ml) was immobilized to wells via its Fc-tail for 2 h at room temperature and thereafter, recombinant VAP-1 ([…] incubated in wells for 2 h at room temperature. After washing the wells with PBS/0.1% Tween, biotinylated anti-human VAP-1 antibody (TK-8-18) was incubated in the wells for 1 h at room temperature and after that, the wells were incubated with HRP conjugated streptavidin for 1 h at room temperature. After washing the wells, a BM chemiluminescence ELISA substrate was added to the wells and luminescence was measured with Tecan luminometer.

[3] = biological target: T3, VAP-1 expressed on the cell surface (CHO-VAP-1 cells) (Homo sapiens, UniProt Q16853); experiment: Epitope analysis: competitive surface staining of CHO-VAP-1 cells with anti-VAP-1 mAb, flow cytometry; format: cell-based; conditions: cells expressing VAP-1 first incubated with 10 micrograms/ml protein, then anti-VAP-1 (JG2.10)
T3 construct: expressed in transfected cells; host or cells: CHO cells (CHO-VAP-1)
T3 sequence (Q16853 1-763): T1 sequence (Q16853 1-763)
Protocol: Surface stainings of CHO-VAP-1 and CHO-mock cells were performed using anti-VAP-1 (JG2.10) and a negative control (9B5) mAbs. Competitive stainings were done in the presence of 10 micrograms/ml either human Ig or Siglec-10-Ig. Alexa546-conjugated goat anti-rat IgG was used as the secondary reagent. All cells were analyzed using FACSCalibur and Cellquest software.

[4] = biological target: T4, VAP-1 (SSAO enzymatic activity) (Homo sapiens, UniProt Q16853); experiment: Isotopic enzyme assay of SSAO activity of VAP-1 (14C-benzylamine, CHO-VAP-1 cell lysate); format: biochemical; conditions: 30 min preincubation with CHO-VAP-1 lysate
T4 construct: expressed in transfected cells; host or cells: CHO cells (CHO-VAP-1)
T4 sequence (Q16853 1-763): T1 sequence (Q16853 1-763)
Protocol: Semicarbazide sensitive mine oxidase (SSAO) enzymatic activity of VAP-1 after interaction with Siglec-10 was determined radiochemically. Briefly, 14-C labeled benzylamine (a model substrate for SSAO) was used as the substrate. The assay was performed at 37° C. for 120 minutes in a final volume of 400 microliters 0.1 mM Krebs-Ringer phosphate glucose buffer (pH 7.35) containing CHO-VAP-1 cell lysate and 5 microM benzylamine with tracer ^14C benzylamine (40 000 dpm) in the presence of 1 mM clorgyline (a MAO inhibitor). In the inhibitory studies, the lysate was preincubated 30 minutes with 10 micrograms/ml or 70 micrograms/ml Siglec-10-Ig-chimera or 1 mM semicarbazide before adding the benzylamine. Catalytic reaction was stopped with citric acid, and the aldehyde reaction products were extracted from the analyzed mixture into toluene containing 0.35 g/L diphenyloxazole. The amount of 14C-labeled benzaldehyde was quantified by scintillation counting using a beta-counter Wallac-1409 (Turku, Finland), and the activity of the enzyme was expressed as picomoles of benzaldehyde formed by milliliter of lysate per hour.

Substance	Binding of biotinylated synthetic peptide to VAP-1 (ELISA) [1]	also measured
CARLSLSWRGLTLCPS (listed as Homo sapiens) [P5]	bound specifically to wells coated with purified VAP-1 in comparison to BSA	–
CATLSWVLQNRVLSSC (listed as Homo sapiens) [P3, longer peptide matching Siglec-10 residues 284-297, cysteines added to both ends]	bound specifically to wells coated with purified VAP-1 in comparison to BSA	–
CVKWRGVVVC (Phage display library peptide) [peptide P1]	shown to bind to VAP-1; also recorded: efficiently bound to purified recombinant VAP-1	–
CWSFRNRVLC (Phage display library peptide) [peptide P2]	shown to bind to VAP-1; also recorded: efficiently bound to purified recombinant VAP-1	–
Siglec-10-Ig-chimera: Siglec-10 fused to an Ig Fc-tail, counter-receptor for VAP-1	–	Interaction of Siglec-10-Ig-chimera with purified VAP-1 (ELISA) [2]: interacts with VAP-1; Cells positive for anti-VAP-1 antibody staining [3]: 43.7%; Inhibition of SSAO activity of VAP-1 ([4]; 10 μg/ml (~7 nM)): 20%; Inhibition of SSAO activity of VAP-1 ([4]; 70 μg/ml (~50 nM)): 30%
